PMC11315929, “A novel role for the peptidyl-prolyl cis-trans isomerase Cyclophilin A in DNA-repair following replication fork stalling via the MRE11-RAD50-NBS1 complex” (EMBO Reports, 2024)

Biological target: T1, recombinant human Strep-tagged CYPA (human, UniProt P62937 1-165)
T1 construct: Cyclophilin A (CYPA, PPIA), human; The methods also call such proteins Streptavidin-tagged; also called CYPA-Strep; source: E. coli BL21(DE3), purified (Strep-Tactin Superflow Plus cartridge, PD10 desalting)
T1 sequence (P62937 whole entry): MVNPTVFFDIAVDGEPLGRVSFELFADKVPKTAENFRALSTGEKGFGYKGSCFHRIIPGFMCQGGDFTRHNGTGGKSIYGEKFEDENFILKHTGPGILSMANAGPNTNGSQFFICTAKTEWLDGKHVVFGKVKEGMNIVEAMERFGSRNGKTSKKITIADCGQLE
Assay: pull-down; recombinant Strep-tagged CYPA and HIS-tagged FHA-BRCT1 combined, 30 min 4 °C; MagStrep type3 XT beads 1 h 4 °C in 100 mM Tris-Cl pH 8, 150 mM NaCl, 1 mM EDTA, 0.5 mg/ml BSA; elution with 50 mM biotin; western blot; beads alone as control
Details: both partners purified

B1: recombinant HIS-tagged human NBS1 peptide composed of FHA-linker-BRCT1 (aa 1-182), wild type (domain or fragment, UniProt O60934 1-182, looked up)
chain: MWKLLPAAGPAGGEPYRLLTGVEYVVGRKNCAILIENDQSISRNHAVLTANFSVTNLSQTDEIPVLTLKDNSKYGTFVNEEKMQNGFSRTLKSGDGITFGVFGSKFRIEYEPLVACSSCLDVSGKTALNQAILQLGGFTVNNWTEECTHLVMVSVKVTIKTICALICGRPIVKPEYFTEFLK
notes: NBS1 (nibrin), human, UniProt O60934, FHA-linker-BRCT1, aa 1-182; also called WT HIS-tagged FHA-BRCT1; NBS1 FHA-BRCT1 peptide; source: E. coli BL21(DE3), purified (HiTrap TALON Crude, PD10 desalting)
binding result: binds
